In publication PMC6735865 (Nucleic Acids Research, 2019):

Target: human METTL5, C-terminally His6-tagged (human, UniProt Q9NRN9)
Experiment: pull-down

Chain of human METTL5, C-terminally His6-tagged (Q9NRN9 whole entry): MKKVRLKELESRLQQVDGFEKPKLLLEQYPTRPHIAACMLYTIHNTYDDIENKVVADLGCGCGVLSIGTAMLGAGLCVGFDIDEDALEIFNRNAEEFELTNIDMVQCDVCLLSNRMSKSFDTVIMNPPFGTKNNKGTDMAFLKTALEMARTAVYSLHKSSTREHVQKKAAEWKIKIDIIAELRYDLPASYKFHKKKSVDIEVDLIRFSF

B1: human TRMT112, untagged (natural protein)
chain: MKLLTHNLLSSHVRGVGSRGFPLRLQATEVRICPVEFNPNFVARMIPKVEWSAFLEAADNLRLIQVPKGPVEGYEENEEFLRTMHHLLLEVEVIEGTLQCPESGRMFPISRGIPNMLLSEEETES
Q: Does B1 bind?
A: Result: binds
